Experiment [1] deals with T1, GST (UniProt P08515 1-218 = GST).
T1 construct: Negative control in the pulldowns; also called GST protein; GST alone
The experiment can be described thus: GST pulldown of [35S]-labeled in vitro translated protein, autoradiography.
Protocol: (§1) The pcDNA3 plasmids expressing the IκB genes under the T7 promoter were used as templates to translate in vitro the [³⁵S]methionine-labeled IκB proteins by using the TNT Quick Coupled transcription/translation systems (Promega). Aliquots (10 μl) of translation mixture were incubated with GST-Tat or GST proteins (10 μg) in 500 μl of binding buffer supplemented with 1 μg/μl of bovine serum albumin on a rocking platform for 3 h at room temperature.

For experiment [2], the target named is T2, FLAG-p100 (in vitro translated) (human, UniProt Q00653 1-900).
T2 sequence: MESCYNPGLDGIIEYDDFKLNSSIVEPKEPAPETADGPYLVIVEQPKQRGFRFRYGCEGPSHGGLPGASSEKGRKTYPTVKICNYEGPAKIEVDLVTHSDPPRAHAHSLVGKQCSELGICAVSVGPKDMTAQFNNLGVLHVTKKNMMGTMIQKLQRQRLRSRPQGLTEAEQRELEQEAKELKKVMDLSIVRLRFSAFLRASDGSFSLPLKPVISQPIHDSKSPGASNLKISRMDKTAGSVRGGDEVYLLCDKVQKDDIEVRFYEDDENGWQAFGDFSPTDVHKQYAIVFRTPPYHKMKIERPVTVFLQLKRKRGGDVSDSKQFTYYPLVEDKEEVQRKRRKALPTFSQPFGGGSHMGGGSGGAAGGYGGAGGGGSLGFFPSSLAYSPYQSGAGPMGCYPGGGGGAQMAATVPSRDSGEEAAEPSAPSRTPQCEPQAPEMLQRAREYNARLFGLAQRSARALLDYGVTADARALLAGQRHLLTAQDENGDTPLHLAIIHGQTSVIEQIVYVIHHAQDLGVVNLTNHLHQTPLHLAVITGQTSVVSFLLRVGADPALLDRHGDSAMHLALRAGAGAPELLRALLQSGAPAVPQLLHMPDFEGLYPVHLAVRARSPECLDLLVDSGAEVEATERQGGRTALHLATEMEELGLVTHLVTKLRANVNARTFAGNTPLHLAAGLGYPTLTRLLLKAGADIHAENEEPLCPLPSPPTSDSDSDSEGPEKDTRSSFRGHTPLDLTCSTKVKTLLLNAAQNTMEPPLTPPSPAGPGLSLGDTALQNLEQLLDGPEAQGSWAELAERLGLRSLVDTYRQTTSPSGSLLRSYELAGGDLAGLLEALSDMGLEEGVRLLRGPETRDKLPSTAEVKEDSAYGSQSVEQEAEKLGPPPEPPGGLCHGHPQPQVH
As to the kind of experiment: GST-Tat pulldown of in vitro translated protein, anti-FLAG Western blot. In general terms: A western blot detects proteins with antibodies after separation by electrophoresis.
Protocol: (§2) The proteins were resolved on 10% SDS-PAGE, transferred to polyvinylidene difluoride membranes, and analyzed by immunoblotting with the indicated antibodies. The pcDNA3 plasmids expressing the IκB genes under the T7 promoter were used as templates to translate in vitro the [³⁵S]methionine-labeled IκB proteins by using the TNT Quick Coupled transcription/translation systems (Promega). Aliquots (10 μl) of translation mixture were incubated with GST-Tat or GST proteins (10 μg) in 500 μl of binding buffer supplemented with 1 μg/μl of bovine serum albumin on a rocking platform for 3 h at room temperature.

The target in experiment [3] is T3, p105 (in vitro translated) (human, UniProt P19838 1-968).
T3 sequence: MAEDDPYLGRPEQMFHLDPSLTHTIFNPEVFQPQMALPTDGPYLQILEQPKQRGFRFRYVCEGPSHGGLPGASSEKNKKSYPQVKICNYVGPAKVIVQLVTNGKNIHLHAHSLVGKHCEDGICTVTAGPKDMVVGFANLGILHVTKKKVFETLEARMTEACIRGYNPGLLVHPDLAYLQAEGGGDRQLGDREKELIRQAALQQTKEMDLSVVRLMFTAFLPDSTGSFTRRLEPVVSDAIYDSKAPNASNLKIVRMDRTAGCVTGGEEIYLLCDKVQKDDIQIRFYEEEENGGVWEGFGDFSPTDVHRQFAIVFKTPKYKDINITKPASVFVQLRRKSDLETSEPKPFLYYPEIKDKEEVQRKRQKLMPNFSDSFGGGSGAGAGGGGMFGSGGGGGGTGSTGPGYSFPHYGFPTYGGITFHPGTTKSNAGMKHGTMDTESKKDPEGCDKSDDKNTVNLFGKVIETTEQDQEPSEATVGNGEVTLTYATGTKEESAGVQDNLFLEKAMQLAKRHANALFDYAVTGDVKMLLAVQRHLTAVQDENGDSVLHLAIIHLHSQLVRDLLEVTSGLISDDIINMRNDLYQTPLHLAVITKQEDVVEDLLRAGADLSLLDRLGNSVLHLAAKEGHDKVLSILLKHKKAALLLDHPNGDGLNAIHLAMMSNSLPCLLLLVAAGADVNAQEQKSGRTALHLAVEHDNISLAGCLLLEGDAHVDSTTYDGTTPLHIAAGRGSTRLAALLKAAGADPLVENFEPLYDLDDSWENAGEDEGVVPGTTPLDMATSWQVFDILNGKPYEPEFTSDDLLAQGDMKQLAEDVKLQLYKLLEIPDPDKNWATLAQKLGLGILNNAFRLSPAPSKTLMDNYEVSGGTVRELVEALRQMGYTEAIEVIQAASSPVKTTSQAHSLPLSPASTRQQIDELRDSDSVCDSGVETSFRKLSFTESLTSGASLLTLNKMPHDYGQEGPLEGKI
The experiment can be described thus: GST-Tat pulldown of in vitro translated protein, anti-p105 Western blot.
Protocol: as §2

The target of experiment [4] is T4, [35S]methionine-labeled IκB-α 1-263 (in vitro translated) (UniProt P25963 1-263, [35S]methionine label).
T4 construct: Translated in vitro from pcDNA3
T4 sequence (looked up): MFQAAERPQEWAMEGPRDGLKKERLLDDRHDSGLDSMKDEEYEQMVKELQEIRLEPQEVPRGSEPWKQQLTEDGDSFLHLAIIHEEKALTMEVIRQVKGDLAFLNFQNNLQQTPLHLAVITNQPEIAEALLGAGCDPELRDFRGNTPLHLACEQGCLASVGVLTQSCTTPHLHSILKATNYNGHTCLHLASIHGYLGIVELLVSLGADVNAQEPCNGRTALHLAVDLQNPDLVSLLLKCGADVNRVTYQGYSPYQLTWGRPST
The experiment can be described thus: GST-Tat pulldown of [35S]-labeled in vitro translated protein, autoradiography.
Protocol: as §1

Experiment [5] deals with T1, GST. As to the kind of experiment: GST pulldown from extracts of transfected HeLa cells, anti-FLAG Western blot.
The target of experiment [6] is T5, GST-IκB-α (UniProt P25963 1-317).
T5 construct: also called pGEX-2T-IκB-α product; not shown: glutathione S-transferase (GST) encoded by pGEX-2T
T5 sequence: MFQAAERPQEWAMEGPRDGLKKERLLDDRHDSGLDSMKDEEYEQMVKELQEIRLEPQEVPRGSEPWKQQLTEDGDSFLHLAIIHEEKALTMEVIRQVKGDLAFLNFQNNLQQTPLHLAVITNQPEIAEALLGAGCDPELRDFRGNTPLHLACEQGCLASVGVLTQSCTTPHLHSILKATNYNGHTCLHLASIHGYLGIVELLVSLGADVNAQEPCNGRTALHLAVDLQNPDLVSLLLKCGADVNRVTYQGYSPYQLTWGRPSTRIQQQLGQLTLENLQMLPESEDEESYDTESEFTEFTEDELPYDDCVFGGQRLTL
As to the kind of experiment: GST-IκB-α pulldown from extracts of transfected HeLa cells, anti-FLAG Western blot.

8 molecules from patent US20100093618A1 (published 2010) can be followed below.

T1 sequence (P08515 whole entry): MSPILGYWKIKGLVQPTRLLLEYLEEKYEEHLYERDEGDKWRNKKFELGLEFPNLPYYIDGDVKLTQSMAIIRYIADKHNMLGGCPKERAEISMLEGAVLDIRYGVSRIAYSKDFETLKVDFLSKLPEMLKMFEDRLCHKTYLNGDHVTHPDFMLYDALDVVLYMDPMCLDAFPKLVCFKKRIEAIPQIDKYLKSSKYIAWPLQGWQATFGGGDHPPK

B1: [35S]methionine-labeled IκB-α 72-287 (in vitro translated) (other)
chain: EDGDSFLHLAIIHEEKALTMEVIRQVKGDLAFLNFQNNLQQTPLHLAVITNQPEIAEALLGAGCDPELRDFRGNTPLHLACEQGCLASVGVLTQSCTTPHLHSILKATNYNGHTCLHLASIHGYLGIVELLVSLGADVNAQEPCNGRTALHLAVDLQNPDLVSLLLKCGADVNRVTYQGYSPYQLTWGRPSTRIQQQLGQLTLENLQMLPESEDEE
modifications: [35S]methionine label
B1: the binding result in experiment [1] is “no binding”.

B2: [35S]methionine-labeled IκB-α 72-287 L(272,274,277)A (in vitro translated) (other, UniProt P25963 72-287, looked up)
chain: EDGDSFLHLAIIHEEKALTMEVIRQVKGDLAFLNFQNNLQQTPLHLAVITNQPEIAEALLGAGCDPELRDFRGNTPLHLACEQGCLASVGVLTQSCTTPHLHSILKATNYNGHTCLHLASIHGYLGIVELLVSLGADVNAQEPCNGRTALHLAVDLQNPDLVSLLLKCGADVNRVTYQGYSPYQLTWGRPSTRIQQQLGQATAENAQMLPESEDEE
modifications: [35S]methionine label
notes: range 72-287
Turning to B2, the binding result in experiment [1] is “no binding”.

B3: GST-Tat (other)
chain: MEPVDPRLEPWKHPGSQPKTACTNCYCKKCCFHCQVCFITKALGISYGRKKRRQRRRAHQNSQTHQASLSKQPTSQPRGDPTGPKE
notes: also called GST-Tat fusion protein from pGEX-2T-Tat; not shown: glutathione S-transferase (GST) encoded by pGEX-2T
Consider B3, for which the binding result in experiment [2], in experiment [3] and in experiment [4] was “no binding” each time.

B4: FLAG-Tat C(22,25,27)A (p3XFLAG-CMV-Tat C(22,25,27)A) (other)
chain: MEPVDPRLEPWKHPGSQPKTAATNAYAKKCCFHCQVCFITKALGISYGRKKRRQRRRAHQNSQTHQASLSKQPTSQPRGDPTGPKE
notes: Expressed in transfected HeLa cells
Regarding B4, in experiment [5], the binding result was “no binding”.

B5: FLAG-Tat (p3XFLAG-CMV-Tat, wild type) (other)
chain: MEPVDPRLEPWKHPGSQPKTACTNCYCKKCCFHCQVCFITKALGISYGRKKRRQRRRAHQNSQTHQASLSKQPTSQPRGDPTGPKE
notes: Expressed in transfected HeLa cells (or MEFs); also called wild type Tat
For B5, the binding result in experiment [5] is reported as “no binding”.

B6: FLAG-Tat R(49-57)A (p3XFLAG-CMV-Tat R(49-57)A) (other)
chain: MEPVDPRLEPWKHPGSQPKTACTNCYCKKCCFHCQVCFITKALGISYGAKKAAQAAAAHQNSQTHQASLSKQPTSQPRGDPTGPKE
On to B6, for which the binding result in experiment [5] and in experiment [6] was “no binding” throughout.

B7: [35S]methionine-labeled IκB-α 243-317 (in vitro translated) (other, UniProt P25963 243-317, looked up)
chain: VNRVTYQGYSPYQLTWGRPSTRIQQQLGQLTLENLQMLPESEDEESYDTESEFTEFTEDELPYDDCVFGGQRLTL
modifications: [35S]methionine label
notes: Translated in vitro from pcDNA3
With B7, the binding result in experiment [1] is given as “no binding”.

B8: [35S]methionine-labeled IκB-α 120-317 (in vitro translated) (other, UniProt P25963 120-317, looked up)
chain: ITNQPEIAEALLGAGCDPELRDFRGNTPLHLACEQGCLASVGVLTQSCTTPHLHSILKATNYNGHTCLHLASIHGYLGIVELLVSLGADVNAQEPCNGRTALHLAVDLQNPDLVSLLLKCGADVNRVTYQGYSPYQLTWGRPSTRIQQQLGQLTLENLQMLPESEDEESYDTESEFTEFTEDELPYDDCVFGGQRLTL
modifications: [35S]methionine label
notes: as for B7
Regarding B8, in experiment [1], the binding result is “no binding”.
